Data as given in PMC10351450 (Autophagy, 2023).

Target: Oligomeric recombinant human Aβ1-42 (human, UniProt P05067)
Assay: co-IP

B1: ATP6V0C subunit of V-ATPase from mouse brain (natural protein)
chain: MADIKNNPEYSSFFGVMGASSAMVFSAMGAAYGTAKSGTGIAAMSVMRPELIMKSIIPVVMAGIIAIYGLVVAVLIANSLTDGITLYRSFLQLGAGLSVGLSGLAAGFAIGIVGDAGVRGTAQQPRLFVGMILILIFAEVLGLYGLIVALILSTK
binding result: binds
